According to PMC11412654, “Immunization of cows with HIV envelope trimers generates broadly neutralizing antibodies to the V2-apex from the ultralong CDRH3 repertoire” (PLOS Pathogens, 2024):

B1: Bess2 (antibody)
VH: KVQLRESGPSLVKPSQTLSLTCTVSGFSLSDKAVGWVRQAPGKALEWLGSIDTGGSTGYNPGLKSRLSITKDNSKSQVSLSVTSVTTEDSTTYYCTTVHQTTKTTKKCPDGYNYDDGCASDLGCGEADCCCYGGYDEYGGYLYSCCSYSYTYEWYVDAWGQGLLVTVSS
VL: QAVLNQPSSVSGSLGQRVSITCSGSSSNVGNGYVSWYQLIPGSAPRTLIYGDTSRASGVPDRFSGSRSGNTATLTISSLQAEDEADYFCASAEDSSSNAVFGSGTTLTVL
notes: also called Bess2 mAb; source: Expi293 or 293F cells, transfected, purified (Protein A Sepharose or Praesto AP)
B2: Bess6 (antibody)
VH: KVQLRESGPSLVKPSQTLSLICTVSGFSLSDKAVGWVRQAPGKALEWLGSIDTAGTTDHHPGLKSRLSITKDNSKNQVSLSLSSVTTEDSATYYCTTVHQPTSKQYSCPDGASVRTGGGWRWLCRGHDCCCVVEYIAYEQTPCTLTRTYEWHIDAWGQGLLVTVSS
VL: B1 VL
notes: also called Bess6 mAb; source: Expi293 or 293F cells, transfected, purified (Protein A Sepharose or Praesto AP)

Target: T1, BG505 gp120 (HIV-1 isolate BG505)
T1 construct: also called monomeric gp120; the monomer
Assay: ELISA; plates coated with 250 ng of BG505 gp120; monoclonal antibodies from 20 μg/mL in seven 6-fold dilutions; detected with alkaline phosphatase conjugated anti-human F(ab')2; room temperature
Conditions: both partners purified

| Binder | binding result |
| --- | --- |
| B1 | no binding (tested: 20 μg/mL (highest concentration)) |
| B2 | no binding (tested: 20 μg/mL (highest concentration)) |
